{"source": "paper PMC1713233", "about": "(2006)", "target": "T1, Trypsin Soybean Inhibitor (TSI) (Glycine max, UniProt P01070)", "T1 chain": "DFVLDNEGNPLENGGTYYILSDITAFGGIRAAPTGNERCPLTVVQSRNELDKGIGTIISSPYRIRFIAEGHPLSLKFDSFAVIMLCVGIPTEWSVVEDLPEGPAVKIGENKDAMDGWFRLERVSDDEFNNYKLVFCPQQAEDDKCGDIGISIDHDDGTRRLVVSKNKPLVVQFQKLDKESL", "assay": "enzyme inhibition assay (BAPNA substrate, Cheng-Prusoff)", "data": [{"binder": "Implantation serine proteinase complex (ISP1-ISP2) (protein) chain 1: KPVGIVGGQRTPPGKWPWQVSLRMYSYEVNSWVHICGGSIIHPQWILTAAHCIQSQDADPAVYRVQVGEVYLYKEQELLNISRIIIHPDYNDVSKRFDLALMQLTALLVTSTNVSPVSLPKDSSTFDSTDQCWLVGWGNLLQRVPLQPPYQLHEVKIPIQDNKSCKRAYRKKSSDEHKAVAIFDDMLCAGTSGRGPCFGDSGGPLVCWKSNKWIQVGVVSKGIDCSNNLPSIFSRVQSSLAWIHQHIQ chain 2: not shown", "values": [{"measurement": "Ki", "result": 2180, "unit": "nM"}]}]}
